Data as given in US20240368285A1 (HEFEI TG IMMUNOPHARMA, published 2024).

Tests used:
[1] = target: T1, MICA on human tumor cells (A-375, A549, HCT-15, MDA-MB-231) (human, UniProt Q29983 24-383); assay: flow cytometry on HCT-15 cells, Alexa-647 goat anti-human secondary, % binding ratio
T1 construct: whole, on cells
T1 sequence (looked up): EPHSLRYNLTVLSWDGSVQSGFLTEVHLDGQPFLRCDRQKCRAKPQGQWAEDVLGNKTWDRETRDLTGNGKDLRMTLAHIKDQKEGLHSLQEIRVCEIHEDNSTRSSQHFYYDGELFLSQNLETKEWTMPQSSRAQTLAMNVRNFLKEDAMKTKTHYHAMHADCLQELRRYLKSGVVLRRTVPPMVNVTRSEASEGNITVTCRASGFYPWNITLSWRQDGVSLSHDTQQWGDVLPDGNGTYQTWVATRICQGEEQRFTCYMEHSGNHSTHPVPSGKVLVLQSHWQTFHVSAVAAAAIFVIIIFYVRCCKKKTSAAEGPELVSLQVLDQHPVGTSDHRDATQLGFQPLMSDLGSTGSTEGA
Description: (§1) (2) Tumor cells were diluted to a density of 2×10⁶/mL with PBS and added into a 1.5 ml EP tube in a volume of 100 l/tube. 10 l/tube of goat serum was added into the EP tube; and blocking was conducted at 4° C. for 30 min. […] The tube was incubated at 4° C. for 30 min. 1 mL of PBS was added into the EP tube, and centrifugation was conducted 4° C. at a rate of 3,500 rpm for 5 min. The supernatant was removed. Then, the EP tube was washed once with the PBS, and the supernatant was removed after centrifugation. The cells were resuspended with PBS in a volume of 100 l/tube. An Alexa-647 labeled goat anti-human secondary antibody (purchased from Jackson lab) was added into the tube in a volume of 1 l/tube, and the tube was incubated in the dark at 4° C. for 30 min. The tube was washed twice with PBS, and the supernatant was removed after centrifugation. The cells were resuspended with the PBS in a volume of 200 l/tube, and detection was conducted by a flow cytometer. The results are as shown in FIG. 17A and FIG. 17B, FIG. 18A and FIG. 18B, FIG. 19A and FIG. 19B, and FIG. 20A and FIG. 20B.

[2] = target: T1, MICA on human tumor cells (A-375, A549, …); assay: flow cytometry on A-375 cells, Alexa-647 goat anti-human secondary, % binding ratio
Description: as §1

[3] = target: T2, MICA002α3-Fc (human); assay: ELISA on coated MICA*002 α3-Fc (1 µg/ml), HRP anti-human Fab secondary, OD450
T2 construct: Produced in the Applicant's laboratory; also called MICA*002-Fc; domain α3 of MICA-002 Fc fusion protein
Description: After the antibodies were added, signal intensity was used for judging the binding characteristics of the antibodies and MICA and MICB.
The fusion proteins (produced in the Applicant's laboratory; an amino acid sequence of MICA002α3-Fc is as set forth in SEQ ID NO: 22; an amino acid sequence of MICA005α3-Fc is as set forth in SEQ ID NO: 24; an amino acid sequence of MICA008α3-Fc is as set forth in SEQ ID NO: 25; an amino acid sequence of MICA004α3-Fc is as set forth in SEQ ID NO: 23; an amino acid sequence of MICB001α3-Fc is as set forth in SEQ ID NO: 26; and an amino acid sequence of MICB005α3-Fc is as set forth in SEQ ID NO: 27) were diluted to a concentration of 1 μg/ml with PBS and then added into a 96-well plate in a volume of 100 μl/well. The plate was placed at 4° C. overnight. The PBS in the 96-well plate was removed by sucking. After the plate was washed with PBST (that is, PBS having a pH value of 7.2 included 0.1 volume % of Tween 20) for 6 times, PBS containing 10% of BSA was added in a volume of 200 μl/well. The plate was incubated at 37° C. for 2 hours for blocking. The blocking solution was removed. […]

[4] = target: T3, MICB005α3-Fc; assay: ELISA on coated MICB*005 α3-Fc (1 µg/ml), HRP anti-human Fab secondary, OD450
T3 construct: also called MICB*005-Fc; domain α3 of MICB-005 Fc fusion protein
T3 sequence (chain, as listed by the source limits assumed): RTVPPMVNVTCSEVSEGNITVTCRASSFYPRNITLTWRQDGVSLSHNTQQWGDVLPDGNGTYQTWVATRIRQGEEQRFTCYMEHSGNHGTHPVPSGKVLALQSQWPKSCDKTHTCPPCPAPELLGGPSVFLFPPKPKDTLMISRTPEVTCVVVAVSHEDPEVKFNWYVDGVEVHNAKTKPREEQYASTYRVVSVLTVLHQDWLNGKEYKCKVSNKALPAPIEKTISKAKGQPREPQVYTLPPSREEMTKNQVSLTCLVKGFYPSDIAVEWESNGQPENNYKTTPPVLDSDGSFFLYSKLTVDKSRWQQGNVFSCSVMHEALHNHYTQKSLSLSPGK

T2 sequence (chain, as listed by the source limits assumed): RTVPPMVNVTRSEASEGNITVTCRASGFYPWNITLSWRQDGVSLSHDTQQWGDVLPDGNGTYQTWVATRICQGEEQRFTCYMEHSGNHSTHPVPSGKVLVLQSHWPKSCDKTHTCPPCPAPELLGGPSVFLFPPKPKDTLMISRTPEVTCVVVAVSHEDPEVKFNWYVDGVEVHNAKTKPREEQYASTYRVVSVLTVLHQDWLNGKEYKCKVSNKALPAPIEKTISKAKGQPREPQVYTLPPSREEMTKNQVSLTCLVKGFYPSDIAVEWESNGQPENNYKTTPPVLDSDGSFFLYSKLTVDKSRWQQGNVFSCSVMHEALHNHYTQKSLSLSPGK

EC50 (read off the curve) [1]: ~0.1 µg/mL | EC50 (read off the curve) [2]: ~0.3 µg/mL | EC50 (read off the curve) [3]: ~0.06 µg/mL | EC50 (read off the curve) [4]: ~0.04 µg/mL
B1: affinity maturation antibody h5A1002 (antibody, V domains shown)
VH: QVQLQESGPGLVKPSETLSLTCTVSGFSLTTYGGHWIRQPPGKGLEWIGMIWTDGWTDYNAAFISRVTISVDTSKNQFSLKLSSVTAADTAVYYCARKGHGYYYAMDYWGQGTLVTVSS
VL: EIVLTQSPGTLSLSPGERATLSCTASSSVSSSYLHWYQQKPGQAPRLLIYSTSNLISGIPDRFSGSGSGTDFTLTISRLEPEDFAVYYCHQYHRSPFTFGQGTKLEIKR
notes: Human IgG1, kappa; also called h5A1002-hIgG1
